Test results reported in patent US20120058116A1 (published 2012).

B1: Ex4-ScrH (antibody, mouse IgG2a, kappa)
heavy: not shown
light: DIVMTQSPSSLSASVGDRVTITCKASQNVGTNVAWYQQKPGKAPKALIYSASYRYSGVPDRFSGSGSGTDFTLTISSLQPEDFATYYCQQYNSYPLTFGGGTKVEIKRTDAAPTVSIFPPSSEQLTSGGASVVCFLNNFYPKDINVKWKIDGSERQNGVLNSWTDQDSKDSTYSMSSTLTLTKDEYERHNSYTCEATHKTSTSPIVKSFNRNEC
B2: GLP-1ScrH (antibody, mouse IgG2a, kappa)
heavy: HGEGTFTSDVSSYLEGQAAKEFIAWLVKGRGSGGGGSGGGGSGQVQLVQSGSELKKPGASVKVSCKASGYTFTNYGMNWVRQAPGQGLEWMGWINTRNGKSTYVDDFKGRFVFSLDTSVSTAYLQISSLKADDTAVYYCAREGNMDGYFPFTYWGQGTLVTVSSAKTTAPSVYPLAPVCGDTTGSSVTLGCLVKGYFPEPVTLTWNSGSLSSGVHTFPAVLQSDLYTLSSSVTVTSSTWPSQSITCNVAHPASSTKVDKKIEPRGPTIKPCPPCKCPAPNLAGAPSVFIFPPKIKDVLMISLSPIVTCVVVDVSEDDPDVQISWFVNNVEVHTAQTQTHREDYNSTLRVVSALPIQHQDWMSGKEFKCKVNNKDLPAPIERTISKPKGSVRAPQVYVLPPPEEEMTKKQVTLTCMVTDFMPEDIYVEWTNNGKTELNYKNTEPVLDSDGSYFMYSKLRVEKKNWVERNSYSCSVVHEGLHNHHTTKSFSRTPGK
light: B1 light
B3: Ex4-FGFR1cA1L (antibody, mouse IgG2a)
heavy: QVQLVQSGAEVKKPGSSVKVSCKASGQTFTGYYMHWVRQAPGQGLEWMGRIIPILGIAQKFQGRVTITADKSTSTAYMELSSLRSEDTAVYYCARGGDLGGMDVWGQGTLVTVSSAKTTAPSVYPLAPVCGDTTGSSVTLGCLVKGYFPEPVTLTWNSGSLSSGVHTFPAVLQSDLYTLSSSVTVTSSTWPSQSITCNVAHPASSTKVDKKIEPRGPTIKPCPPCKCPAPNLAGAPSVFIFPPKIKDVLMISLSPIVTCVVVDVSEDDPDVQISWFVNNVEVHTAQTQTHREDYNSTLRVVSALPIQHQDWMSGKEFKCKVNNKDLPAPIERTISKPKGSVRAPQVYVLPPPEEEMTKKQVTLTCMVTDFMPEDIYVEWTNNGKTELNYKNTEPVLDSDGSYFMYSKLRVEKKNWVERNSYSCSVVHEGLHNHHTTKSFSRTPGK
light: not shown
B4: Ex4-FGFR1cA1H (antibody, mouse IgG2a)
heavy: not shown
light: EIVLTQSPLSLPVTPGEPASISCRSSQSLRHSNGYNYLDWYLQKPGQSPQLLIYLASNRASGVPDRFSGSGSGTDFTLKISRVEAEDVGVYYCMQALQIPPTFGPGTKVDIKRTVAAPTVSIFPPSSEQLTSGGASVVCFLNNFYPKDINVKWKIDGSERQNGVLNSWTDQDSKDSTYSMSSTLTLTKDEYERHNSYTCEATHKTSTSPIVKSFNRNEC
B5: Ex4-ScrL (antibody, mouse IgG2a)
heavy: QVQLVQSGSELKKPGASVKVSCKASGYTFTNYGMNWVRQAPGQGLEWMGWINTRNGKSTYVDDFKGRFVFSLDTSVSTAYLQISSLKADDTAVYYCAREGNMDGYFPFTYWGQGTLVTVSSAKTTAPSVYPLAPVCGDTTGSSVTLGCLVKGYFPEPVTLTWNSGSLSSGVHTFPAVLQSDLYTLSSSVTVTSSTWPSQSITCNVAHPASSTKVDKKIEPRGPTIKPCPPCKCPAPNLAGAPSVFIFPPKIKDVLMISLSPIVTCVVVDVSEDDPDVQISWFVNNVEVHTAQTQTHREDYNSTLRVVSALPIQHQDWMSGKEFKCKVNNKDLPAPIERTISKPKGSVRAPQVYVLPPPEEEMTKKQVTLTCMVTDFMPEDIYVEWTNNGKTELNYKNTEPVLDSDGSYFMYSKLRVEKKNWVERNSYSCSVVHEGLHNHHTTKSFSRTPGK
light: not shown
B6: GLP-1ScrL (antibody, mouse IgG2a)
heavy: B5 heavy
light: HGEGTFTSDVSSYLEGQAAKEFIAWLVKGRGSGGGGSGGGGSGDIVMTQSPSSLSASVGDRVTITCKASQNVGTNVAWYQQKPGKAPKALIYSASYRYSGVPDRFSGSGSGTDFTLTISSLQPEDFATYYCQQYNSYPLTFGGGTKVEIKRTVAAPTVSIFPPSSEQLTSGGASVVCFLNNFYPKDINVKWKIDGSERQNGVLNSWTDQDSKDSTYSMSSTLTLTKDEYERHNSYTCEATHKTSTSPIVKSFNRNEC
B7: GLP1ScrH/L (antibody, mouse IgG2a)
heavy: B2 heavy
light: B6 light

Target: GLP-1 receptor on CHO 6CRE GLP1R cells
Test: cell-based or functional assay

Binder | Average EC50 (pM), luciferase reporter in CHO 6CRE GLP1R cells [pM]
B1 | 153
B2 | 485
B3 | 109
B4 | 117
B5 | 117
B6 | 889
B7 | 475
